The values that follow come from the RNAGym collection of RNA variant scans (doi:10.7554/elife.90254).

First the molecules themselves.
B1: LINE1-full (parent)
chain: UACGUAGGUGGUUUUCCCCUGAUAGUGCUAAGGGGGCCUGGAAGUUUGGACUGGGCAGAGCUCAACACAGCGUGGCAAAGUGGCUGUGGCUAGACUGCCUCUCUGGAUUCCUCGUCACUCAGCAGGGCAUCUCUGAGAGAAAUGCC

The series covers variants of B1. In words: self-cleavage, relative activity (ratio to wild type); higher = more cleavage; in vitro, sequencing; the parent is a self-cleaving ribozyme.
In the case of UACGUAGGUGGUUUUCCCCUGAUUGUGCUAAGGGGGCCUGGAAGUUUGGACUGGGCAGAGCUCAACACAGCGUGGCAAAGUGGCUGUGGCUAGACUGCCUCUCUGAAUUCCUCGUCACUCAGCAGGGCAUCUCUGAGAGAAAUGCC [A24U G106A], the self-cleavage worked out at 1.51.

For the variant UACGUAGGUGGUUUUCCCCUGAUUGUGCUAAGGGGGCCUGGAGGUUUGGACUGGGCAGAGCUCAACACAGCGUGGCAAAGUGGCUGUGGCUAGACUGCCUCUCUGGAUUCCUCGUCACUCAGCAGGGCAUCUCUGAGAGAAAUGCC [A24U A43G], the self-cleavage was found to be 1.33.

As to UACGUAGGUGGUUUUCCCCUGAUUGUGCUAAGGGGGCCUGGAAGUUUGGACUGGGCAGAGCUCAACACAGCGUGGCAAAGUGGCUGUGGCUAAACUGCCUCUCUGGAUUCCUCGUCACUCAGCAGGGCAUCUCUGAGAGAAAUGCC [A24U G93A], the self-cleavage came out at 0.06.

Consider UACGUAGGUGGUUUUCCCCUGAUUGUGCUAAGAGGGCCUGGAAGUUUGGACUGGGCAGAGCUCAACACAGCGUGGCAAAGUGGCUGUGGCUAGACUGCCUCUCUGGAUUCCUCGUCACUCAGCAGGGCAUCUCUGAGAGAAAUGCC [A24U G33A], for which the self-cleavage is 1.07.

For UACGUAGGUGGUUUUCCCCUGAUUGUGCUAAGGGGGCCUGGAAGUUUGGACUGGGCAGAGCUCAACACAGCGUGGCAAAGUGGCUGUGGCUUGACUGCCUCUCUGGAUUCCUCGUCACUCAGCAGGGCAUCUCUGAGAGAAAUGCC [A24U A92U], the self-cleavage is 0.7.

UACGUAGGUGGUUUUCCCCUGAUUGUGCUAAGGGGGCCUGGAAGUUUGGACUGGGCAGAGCUCAACACAGCGUGGCAAAGUGGCUGUGGCUAGACUGCCUCUCUGGAUUCCUCGUCACUCAGCAGGGCAUCUCUGAUAGAAAUGCC [A24U G137U]: the self-cleavage was 2.12.

Take UACGUAGGUGGUUUUCCCCUGAUGGUGCUAAGGGGGCCUGGAAGUUUGGACUGGGCAGAGCUCAACACAGCGUGGCAAAGUGGCUGUGGCUAGACUGCCUCUCUGGAUUCCUCGUCACUCAGCAGGGCAUCCCUGAGAGAAAUGCC [A24G U132C]: the self-cleavage turned out to be 1.17.

Regarding UACGUAGGUGGUUUUCCCCUGAUUGUGCUAAGGGGGCCAGGAAGUUUGGACUGGGCAGAGCUCAACACAGCGUGGCAAAGUGGCUGUGGCUAGACUGCCUCUCUGGAUUCCUCGUCACUCAGCAGGGCAUCUCUGAGAGAAAUGCC [A24U U39A], the self-cleavage was 0.84.

Turning to UACGUAGGUGGUUUUCCCCUGAUUGUGCUAAGGGGGCCUGGAAGUUUGGACUGGGCAGAGCUCAACACAGCGUGGCAAAGUGGCUGUGGCUAGACUGCCUCUCUGGAUUCCUCGUCACUCAGCAGGGCUUCUCUGAGAGAAAUGCC [A24U A129U], the self-cleavage is 1.26.

For the variant UACGUAGGUGGUUUUCCCCUGAUUGUGCUAAGGGGGCCUGGAAGUUUGGACUGGGCAGAGCUCAACACAGCGUGGCAAAGUGGCUGAGGCUAGACUGCCUCUCUGGAUUCCUCGUCACUCAGCAGGGCAUCUCUGAGAGAAAUGCC [A24U U87A], the self-cleavage stood at 0.11.

For the variant UACGUAGGUGGUUUUCCCCUGAUUGUGCAAAGGGGGCCUGGAAGUUUGGACUGGGCAGAGCUCAACACAGCGUGGCAAAGUGGCUGUGGCUAGACUGCCUCUCUGGAUUCCUCGUCACUCAGCAGGGCAUCUCUGAGAGAAAUGCC [A24U U29A], the self-cleavage came to 1.12.

With UACGUAGGUGGUUUUCCCCUGAUUGUGCUAAGGGGGCCUGGAAGUUUGGACUGGGCAGAGCUCAACACAGCGUGGCAAGGUGGCUGUGGCUAGACUGCCUCUCUGGAUUCCUCGUCACUCAGCAGGGCAUCUCUGAGAGAAAUGCC [A24U A79G], the self-cleavage turned out to be 0.97.

For UACGUAGGUGGUUUUCCCCUGAUGGUGCUAAGGGGGCCUGGAAGUUUGGACUGGGCAGAGCUCAACACAGCGUGGCAAAGUGGCUGUGGCUAGACUGCCUCUCUGGAUUCCUCGUCACUCAGCAGGGCAUCUCUGAGAGAAAAGCC [A24G U143A], the self-cleavage amounted to 0.72.

Take UACGUAGGUGGUUUUCCCCUGAUUGUGCUAAGGGGGCCUGGAAGUUUGGACUGGGCAGAGCUCAACACAGCGUGGCAAAGUGGCUGUGGCUAGACUGCCUCCCUGGAUUCCUCGUCACUCAGCAGGGCAUCUCUGAGAGAAAUGCC [A24U U102C]: the self-cleavage came out at 1.09.

In the case of UACGUAGGUGGUUUUCCCCUGAUUGUGCUAAGGGGGCCUGGAAGUUUGGACUGGGCAGAGCACAACACAGCGUGGCAAAGUGGCUGUGGCUAGACUGCCUCUCUGGAUUCCUCGUCACUCAGCAGGGCAUCUCUGAGAGAAAUGCC [A24U U62A], the self-cleavage is 0.03.

Turning to UACGUAGGUGGUUUUCCCCUGAUUGUGCUAAGGGGGCCUGGAAGUUUGGACUGGGCAGAGCUCAACACAGCGUGGCAAAGUGGCUGUGGCUAGACUGCCUCUCUGGAUUCCUCGUCCCUCAGCAGGGCAUCUCUGAGAGAAAUGCC [A24U A117C], the self-cleavage was determined as 1.6.

As to UACGUAGGUGGUUUUCCCCUGAUUGUGCUAAGGGGGCCUGGAAGUUUGGACUGGGCAGAGCUCAACACAGCGUGGCAAAGUGGCUGUGGCUAGACUGCCUCUCUGGAUUACUCGUCACUCAGCAGGGCAUCUCUGAGAGAAAUGCC [A24U C110A], the self-cleavage turned out to be 1.1.

For the variant UACGUAGGUGGUUUUCCCCUGAUUGUGCUAAGGGGGCCUGGAAGUUUGGACUGGGCAGAGCUCAACACAGCGUGGCAAAGUGGCUGUGGCUAGACUGCCUCUCUGGAUUCCUCGUCACUCGGCAGGGCAUCUCUGAGAGAAAUGCC [A24U A121G], the self-cleavage was 1.08.

Take UACGUAGGUGGUUUUCCCCUGAUUGUGCUAAGGGGGCCUGGAAGUUUGGACUGGGCAGAGCUCAACACAGCGUGGCAAAGUGGCUGUGGCUAGACUGCCUCUCUGGAUUCCUCGUCACUCAGCAGGGCAUCUCUGAGAGAAAUGUC [A24U C145U]: the self-cleavage was found to be 1.4.

As to UACGUAGGUGGUUUUCCCCUGAUUGUGCUAAGGGGGCCUGGAAGUUUGGACUGGGCAGAGCUCAACACAGCGUGGCAAAGUGGCUGUGGCUAGACUGCCUCUCUGGAUUCCUCGUCACGCAGCAGGGCAUCUCUGAGAGAAAUGCC [A24U U119G], the self-cleavage was found to be 2.22.

Take UACGUAGGUGGUUUUCCCCUGAUUGUGCUAAGGGGGCCUGGAAGUUCGGACUGGGCAGAGCUCAACACAGCGUGGCAAAGUGGCUGUGGCUAGACUGCCUCUCUGGAUUCCUCGUCACUCAGCAGGGCAUCUCUGAGAGAAAUGCC [A24U U47C]: the self-cleavage was 1.57.

With UACGUAGGUGGUUUUCCCCUGAUUGUGCUAAGGGGGCCUGGAAGUUUGGACUGGGCAGAGCUCAACACAGCGUGGCAAAGUGGCUGUGGCUAGACUGCCUCUCUGGAUUCCUCGUCACUCAGCAGGGCAUCUCUGAGGGAAAUGCC [A24U A138G], the self-cleavage is 0.94.

As to UACGUAGGUGGUUUUCCCCUGAUUGUGCUAAGGGGGCCUGGAAGUUUGGACUGGGCAGAGCUCAACACAGCGUGGCAAAGUGGCUGUGGCUAGGCUGCCUCUCUGGAUUCCUCGUCACUCAGCAGGGCAUCUCUGAGAGAAAUGCC [A24U A94G], the self-cleavage was found to be 0.47.

As for UACGUAGGUGGUUUUCCCCUGAUUGCGCUAAGGGGGCCUGGAAGUUUGGACUGGGCAGAGCUCAACACAGCGUGGCAAAGUGGCUGUGGCUAGACUGCCUCUCUGGAUUCCUCGUCACUCAGCAGGGCAUCUCUGAGAGAAAUGCC [A24U U26C], the self-cleavage is 0.97.

As for UACGUAGGUGGUUUUCCCCUGAUUGUGCUAAGGGGGCCUGGAAGUUUGGACUGGGCGGAGCUCAACACAGCGUGGCAAAGUGGCUGUGGCUAGACUGCCUCUCUGGAUUCCUCGUCACUCAGCAGGGCAUCUCUGAGAGAAAUGCC [A24U A57G], the self-cleavage came to 0.56.

Turning to UACGUAGGUGGUUUUCCCCUGAUUGUGCUAAGGGGGCCUGGAAGUAUGGACUGGGCAGAGCUCAACACAGCGUGGCAAAGUGGCUGUGGCUAGACUGCCUCUCUGGAUUCCUCGUCACUCAGCAGGGCAUCUCUGAGAGAAAUGCC [A24U U46A], the self-cleavage stood at 0.91.

Take UACGUAGGUGGUUUUCCCCUGAUUGUGCUAAGGGGGCCUGGAAGUUUGGACUGGGCAGAGCUCAACGCAGCGUGGCAAAGUGGCUGUGGCUAGACUGCCUCUCUGGAUUCCUCGUCACUCAGCAGGGCAUCUCUGAGAGAAAUGCC [A24U A67G]: the self-cleavage was 0.43.

Turning to UACGUAGGUGGUUUUCCCCUGAUUGUGCUAAGGGGGCCUGGAAGUUUGGACUGGGCAGAGCUCAACACAGCGUGGCAAAGUGGCUGUGGCUAGACUGCCUCUCUGGAUUCCUCGUCACUCAGCAGGGCAUCACUGAGAGAAAUGCC [A24U U132A], the self-cleavage was found to be 1.59.

UACGUAGGUGGUUUUCCCCUGAUUGUGCUAAGGGGGCCUGGAAGUUUGGACUGGGCAGAGCUCAACACAGCGUGGCAAAGUGGCUGUGGCUAGACUGCCUCUCUGGAUUCCUCGUCACUCAGCAGGGCAUCCCUGAGAGAAAUGCC [A24U U132C]: the self-cleavage was found to be 1.07.

UACGUAGGUGGUUUUCCCCUGAUUGUGCUAAGGGGGCCUGGAAGUUUGGACUGGGCAGAGCUCAACACAGCGUGGCAAAGUGACUGUGGCUAGACUGCCUCUCUGGAUUCCUCGUCACUCAGCAGGGCAUCUCUGAGAGAAAUGCC [A24U G83A]: the self-cleavage is 1.07.

On to UACGUAGGUGGUUUUCCCCUGAUUGUGCUAAGGGGGCCUAGAAGUUUGGACUGGGCAGAGCUCAACACAGCGUGGCAAAGUGGCUGUGGCUAGACUGCCUCUCUGGAUUCCUCGUCACUCAGCAGGGCAUCUCUGAGAGAAAUGCC [A24U G40A], for which the self-cleavage worked out at 0.71.

Consider UACGUAGGUGGUUUUCCCCUGAUUGUGCUAAGGGGGCCUGGAAGUUUGGACUGGGCAGAGCUCAACACAGCGUGGCAAAGUGGCUGUGGCUAGACUGCCUCUCUGGAUUCCUCGUCACUCAGCAGAGCAUCUCUGAGAGAAAUGCC [A24U G126A], for which the self-cleavage was determined as 1.34.

As for UACGUAGGUGGUUUUCCCCUGAUUGUGCUAAGGGGGCCUGGAAGUUUGGACUGGGCAGAGCUCAACACAGCGUGGCAAAGUGGCUGUGGCUAGACUGCCUCUCUGGAUUCCUCGUCACUCAGCAGUGCAUCUCUGAGAGAAAUGCC [A24U G126U], the self-cleavage was 1.22.

For UACGUAGGUGGUUUUCCCCUGAUUGUGCUAAGGGGGCCUGGAAGUUUGGACUGGGCAGAGCUCAACACAGCGUGGCAAAGUGGCUGUGGCUAGACUGCCUCUCUGGAUUCCUCGUCACUCAGCAGGGCAUCUCUGAGAGUAAUGCC [A24U A140U], the self-cleavage turned out to be 2.

With UACGUAGGUGGUUUUCCCCUGAUGGUGCUAAGGGGGCCUGGAAGUUUGGACUGGGCAGAGCUCAACACAGCGUGGCAAAGUGGCUGUGGCUAGACUGCCUCUCUGGAUUCCUCGUCACUCAGCAGGGCAUCUCAGAGAGAAAUGCC [A24G U134A], the self-cleavage was found to be 0.99.

For UACGUAGGUGGUUUUCCCCUGAUGGUGCUAAGGGGGCCUGGAAGUUUGGACUGGGCAGAGCUCAACACAGCGUGGCAAAGUGGCUGUGGCUAGACUGCCUCUCUGGAUUCCUCGUCACUCAGCAGGGCAUCUCCGAGAGAAAUGCC [A24G U134C], the self-cleavage was 1.26.

In the case of UACGUAGGUGGUUUUCCCCUGAUUGUGCUAAGGGGGCCUGGAAGUUUGGACUGGGCAGAGCUCAACACAGCGUGGCAAAGUGGCUGUGGCUAGACUGCCUCUCUGGAUUCCUCGUCACUCAGCAGGGCAUCUCUGAGAGAACUGCC [A24U A142C], the self-cleavage came to 1.54.

Regarding UACGUAGGUGGUUUUCCCCUGAUUGUGCUAAGGGGGCCUGGAAGUUUGGACUGGGCAGAGCUCAACACAGCGUGGCAAAGUGGCUGUGGCUAGACUGCCUCUCUGGAUUCCUCGUCACUCAGCAGGGCAUCUCUGAGAGAAGUGCC [A24U A142G], the self-cleavage was 1.29.

Turning to UACGUAGGUGGUUUUCCCCUGAUUGUGCUAAGGGGGCCUGGAAGUUUGGACUGGGCAGAGCUCAACACAGCGUGGCAAAGUGGCUGUGGCUAGACUGCCUCUCUGGAUUCCUCGUCACUCAUCAGGGCAUCUCUGAGAGAAAUGCC [A24U G122U], the self-cleavage turned out to be 1.33.
